Positions of bridges follow the written chain, without caps; N, C: chain ends. Non-standard residues stand in square brackets, D forms with d. No end group written: not given here. *: point of attachment. Acetyl(2-(4-imidazolyl)) = O=C(Cc1c[nH]cn1)*; Aib = CC(C)(N)C(=O)O
Experiments:
Assay in all cases: cell-based or functional assay
[1] = biological target: human GCG receptor (human, UniProt P47871 26-477)
[2] = biological target: T1, human GIP receptor (human, UniProt P48546 22-466)
T1 sequence (looked up): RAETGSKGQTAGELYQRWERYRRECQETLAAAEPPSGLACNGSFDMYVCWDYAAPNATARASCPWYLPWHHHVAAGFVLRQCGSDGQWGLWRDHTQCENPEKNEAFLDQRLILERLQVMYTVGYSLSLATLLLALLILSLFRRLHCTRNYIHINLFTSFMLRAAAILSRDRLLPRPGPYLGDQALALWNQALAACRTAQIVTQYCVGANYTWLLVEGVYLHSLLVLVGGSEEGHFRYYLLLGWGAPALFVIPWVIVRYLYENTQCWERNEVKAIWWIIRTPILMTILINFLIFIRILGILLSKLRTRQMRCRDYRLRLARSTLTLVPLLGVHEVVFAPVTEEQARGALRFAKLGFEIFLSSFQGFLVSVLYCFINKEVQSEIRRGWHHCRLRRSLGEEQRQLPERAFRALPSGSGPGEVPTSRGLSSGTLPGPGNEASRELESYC

[3] = biological target: human GLP-1 receptor (human, UniProt P43220 24-463)

Sequence of human GCG receptor (P47871 26-477): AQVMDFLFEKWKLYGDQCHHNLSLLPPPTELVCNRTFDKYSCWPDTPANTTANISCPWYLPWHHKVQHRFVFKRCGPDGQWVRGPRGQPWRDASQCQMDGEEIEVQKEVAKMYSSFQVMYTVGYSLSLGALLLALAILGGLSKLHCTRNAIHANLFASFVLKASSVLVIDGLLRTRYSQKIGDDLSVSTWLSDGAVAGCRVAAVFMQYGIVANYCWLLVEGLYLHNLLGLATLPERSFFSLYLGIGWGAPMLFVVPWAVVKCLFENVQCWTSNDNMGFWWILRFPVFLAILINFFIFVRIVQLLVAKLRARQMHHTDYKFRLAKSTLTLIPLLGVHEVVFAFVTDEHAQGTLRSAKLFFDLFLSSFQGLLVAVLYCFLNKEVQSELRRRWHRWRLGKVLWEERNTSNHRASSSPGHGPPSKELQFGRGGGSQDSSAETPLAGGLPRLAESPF

B1: trigonal agonist of SEQ ID NO: 16 (peptide)
peptide: {Acetyl(2-(4-imidazolyl))}-GQGTFTSDLSKQMDSEAQQLFIEWLKNGGPSSGAPPPSHG
- In vitro activity relative to native peptide (%), vs. Glucagon (cAMP EC50) [1]: < 0.1%
- In vitro activity relative to native peptide (%), vs. GIP (cAMP EC50) [2]: < 0.1%
- In vitro activity relative to native peptide (%), vs. GLP-1 (cAMP EC50) [3]: 2.1%

B2: trigonal agonist of SEQ ID NO: 11 (peptide)
peptide: {Acetyl(2-(4-imidazolyl))}-GEGTFTSDLSKYLDSRRQQLFVQWLKAGGPSSGAPPPSHG
- In vitro activity relative to native peptide (%), vs. Glucagon (cAMP EC50) [1]: < 0.1%
- In vitro activity relative to native peptide (%), vs. GIP (cAMP EC50) [2]: < 0.1%
- In vitro activity relative to native peptide (%), vs. GLP-1 (cAMP EC50) [3]: 1.4%

B3: trigonal agonist of SEQ ID NO: 90 (peptide)
peptide: {Acetyl(2-(4-imidazolyl))}-[Aib]EGTFTSDYSIAMDEIHQKDFVNWLLAQKC
modifications: bridge 15-19
- In vitro activity relative to native peptide (%), vs. Glucagon (cAMP EC50) [1]: < 0.1%
- In vitro activity relative to native peptide (%), vs. GIP (cAMP EC50) [2]: < 0.1%
- In vitro activity relative to native peptide (%), vs. GLP-1 (cAMP EC50) [3]: 7.4%

B4: trigonal agonist of SEQ ID NO: 14 (peptide)
peptide: {Acetyl(2-(4-imidazolyl))}-GQGTFTSDYSIQLDEIAVRDFVEWLKNGGPSSGAPPPSHG
- In vitro activity relative to native peptide (%), vs. Glucagon (cAMP EC50) [1]: < 0.1%
- In vitro activity relative to native peptide (%), vs. GIP (cAMP EC50) [2]: < 0.1%
- In vitro activity relative to native peptide (%), vs. GLP-1 (cAMP EC50) [3]: 28%

B5: trigonal agonist of SEQ ID NO: 93 (peptide)
peptide: {Acetyl(2-(4-imidazolyl))}-[Aib]QGTFTSDYSKYLDEKRQKEFVNWLLAQKC
modifications: bridge 15-19
- In vitro activity relative to native peptide (%), vs. Glucagon (cAMP EC50) [1]: 0.3%
- In vitro activity relative to native peptide (%), vs. GIP (cAMP EC50) [2]: 0.7%
- In vitro activity relative to native peptide (%), vs. GLP-1 (cAMP EC50) [3]: 5.7%

B6: trigonal agonist of SEQ ID NO: 100 (peptide)
peptide: Y[Aib]QGTFTSDYSKALDEKAAKEFVQWLLDQHPSSGQPPPSC
modifications: bridge 16-20
- In vitro activity relative to native peptide (%), vs. Glucagon (cAMP EC50) [1]: 12.7%
- In vitro activity relative to native peptide (%), vs. GIP (cAMP EC50) [2]: 118%
- In vitro activity relative to native peptide (%), vs. GLP-1 (cAMP EC50) [3]: 42.2%

B7: trigonal agonist of SEQ ID NO: 13 (peptide)
peptide: {Acetyl(2-(4-imidazolyl))}-GEGTFISDYSIQLDEIAVQDFVEWLLAQKPSSGAPPPSHG
- In vitro activity relative to native peptide (%), vs. Glucagon (cAMP EC50) [1]: < 0.1%
- In vitro activity relative to native peptide (%), vs. GIP (cAMP EC50) [2]: < 0.1%
- In vitro activity relative to native peptide (%), vs. GLP-1 (cAMP EC50) [3]: < 0.1%

B8: trigonal agonist of SEQ ID NO: 99 (peptide)
peptide: Y[Aib]QGTFTSDYSKALDEKAAKDFVNWLLDHHPSSGQPPPSC
modifications: bridge 16-20
- In vitro activity relative to native peptide (%), vs. Glucagon (cAMP EC50) [1]: 14.9%
- In vitro activity relative to native peptide (%), vs. GIP (cAMP EC50) [2]: 57.7%
- In vitro activity relative to native peptide (%), vs. GLP-1 (cAMP EC50) [3]: 20.9%

B9: trigonal agonist of SEQ ID NO: 89 (peptide)
peptide: {Acetyl(2-(4-imidazolyl))}-[Aib]QGTFTSDYSKYLDEKRQKEFVQWLLDTKC
modifications: bridge 15-19
- In vitro activity relative to native peptide (%), vs. Glucagon (cAMP EC50) [1]: 0.7%
- In vitro activity relative to native peptide (%), vs. GIP (cAMP EC50) [2]: < 0.1%
- In vitro activity relative to native peptide (%), vs. GLP-1 (cAMP EC50) [3]: 7.1%

B10: trigonal agonist of SEQ ID NO: 97 (peptide)
peptide: Y[Aib]QGTFTSDYSKYLDEKRAKEFVQWLLDCHPSSGQPPPS
modifications: bridge 16-20
- In vitro activity relative to native peptide (%), vs. Glucagon (cAMP EC50) [1]: 62.8%
- In vitro activity relative to native peptide (%), vs. GIP (cAMP EC50) [2]: 2.6%
- In vitro activity relative to native peptide (%), vs. GLP-1 (cAMP EC50) [3]: 10.5%

B11: trigonal agonist of SEQ ID NO: 2 (peptide)
peptide: H[Aib]QGTFTSDVSSYLDGQAQKEFIAWLVKGC
- In vitro activity relative to native peptide (%), vs. Glucagon (cAMP EC50) [1]: < 0.1%
- In vitro activity relative to native peptide (%), vs. GIP (cAMP EC50) [2]: < 0.1%
- In vitro activity relative to native peptide (%), vs. GLP-1 (cAMP EC50) [3]: 5.9%

B12: trigonal agonist of SEQ ID NO: 96 (peptide)
peptide: Y[Aib]QGTFTSDYSKYLDEKRAKEFVQWLLDHCPSSGQPPPS
modifications: bridge 16-20
- In vitro activity relative to native peptide (%), vs. Glucagon (cAMP EC50) [1]: 195%
- In vitro activity relative to native peptide (%), vs. GIP (cAMP EC50) [2]: 5.2%
- In vitro activity relative to native peptide (%), vs. GLP-1 (cAMP EC50) [3]: 34.4%

B13: trigonal agonist of SEQ ID NO: 12 (peptide)
peptide: {Acetyl(2-(4-imidazolyl))}-GEGTFISDLSKYMDEQAVQLFVEWLMAGGPSSGAPPPSHG
- In vitro activity relative to native peptide (%), vs. Glucagon (cAMP EC50) [1]: < 0.1%
- In vitro activity relative to native peptide (%), vs. GIP (cAMP EC50) [2]: < 0.1%
- In vitro activity relative to native peptide (%), vs. GLP-1 (cAMP EC50) [3]: 0.4%

B14: trigonal agonist of SEQ ID NO: 92 (peptide)
peptide: {Acetyl(2-(4-imidazolyl))}-[Aib]QGTFTSDYSIAMDEIHQKDFVNWLLAQKC
modifications: bridge 15-19
- In vitro activity relative to native peptide (%), vs. Glucagon (cAMP EC50) [1]: < 0.1%
- In vitro activity relative to native peptide (%), vs. GIP (cAMP EC50) [2]: 0.4%
- In vitro activity relative to native peptide (%), vs. GLP-1 (cAMP EC50) [3]: 0.8%

B15: trigonal agonist of SEQ ID NO: 91 (peptide)
peptide: {Acetyl(2-(4-imidazolyl))}-[Aib]EGTFTSDYSIAMDEIHQKDFVDWLLAEKC
modifications: bridge 15-19
- In vitro activity relative to native peptide (%), vs. Glucagon (cAMP EC50) [1]: 16.8%
- In vitro activity relative to native peptide (%), vs. GIP (cAMP EC50) [2]: 0.3%
- In vitro activity relative to native peptide (%), vs. GLP-1 (cAMP EC50) [3]: 31.9%

B16: trigonal agonist of SEQ ID NO: 19 (peptide)
peptide: {Acetyl(2-(4-imidazolyl))}-GQGTFTSDLSIQYDSEHQRDFIEWLKDTGPSSGAPPPSHG
- In vitro activity relative to native peptide (%), vs. Glucagon (cAMP EC50) [1]: < 0.1%
- In vitro activity relative to native peptide (%), vs. GIP (cAMP EC50) [2]: < 0.1%
- In vitro activity relative to native peptide (%), vs. GLP-1 (cAMP EC50) [3]: < 0.1%

B17: trigonal agonist of SEQ ID NO: 95 (peptide)
peptide: Y[Aib]QGTFTSDYSKYLDEKRAKEFVQWLLCHHPSSGQPPPS
modifications: bridge 16-20
- In vitro activity relative to native peptide (%), vs. Glucagon (cAMP EC50) [1]: 0.4%
- In vitro activity relative to native peptide (%), vs. GIP (cAMP EC50) [2]: < 0.1%
- In vitro activity relative to native peptide (%), vs. GLP-1 (cAMP EC50) [3]: 2.1%

B18: trigonal agonist of SEQ ID NO: 18 (peptide)
peptide: {Acetyl(2-(4-imidazolyl))}-GQGTFTSDLSKQMDSERAREFIEWLKNTGPSSGAPPPSHG
- In vitro activity relative to native peptide (%), vs. Glucagon (cAMP EC50) [1]: < 0.1%
- In vitro activity relative to native peptide (%), vs. GIP (cAMP EC50) [2]: < 0.1%
- In vitro activity relative to native peptide (%), vs. GLP-1 (cAMP EC50) [3]: < 0.1%

B19: trigonal agonist of SEQ ID NO: 17 (peptide)
peptide: {Acetyl(2-(4-imidazolyl))}-GQGTFTSDLSKQMDEERAREFIEWLLAQKPSSGAPPPSHG
- In vitro activity relative to native peptide (%), vs. Glucagon (cAMP EC50) [1]: < 0.1%
- In vitro activity relative to native peptide (%), vs. GIP (cAMP EC50) [2]: < 0.1%
- In vitro activity relative to native peptide (%), vs. GLP-1 (cAMP EC50) [3]: 0.2%

B20: trigonal agonist of SEQ ID NO: 101 (peptide)
peptide: Y[Aib]QGTFTSDYSKALDEKAAKEFVNWLLDQHPSSGQPPPSC
modifications: bridge 16-20
- In vitro activity relative to native peptide (%), vs. Glucagon (cAMP EC50) [1]: 13.9%
- In vitro activity relative to native peptide (%), vs. GIP (cAMP EC50) [2]: 40.1%
- In vitro activity relative to native peptide (%), vs. GLP-1 (cAMP EC50) [3]: 23.2%

B21: trigonal agonist of SEQ ID NO: 10 (peptide)
peptide: H[Aib]QGTFTSDVSKYLDGQAAQEFVAWLLAGGGPSSGAPPPSC
- In vitro activity relative to native peptide (%), vs. Glucagon (cAMP EC50) [1]: < 0.1%
- In vitro activity relative to native peptide (%), vs. GIP (cAMP EC50) [2]: < 0.1%
- In vitro activity relative to native peptide (%), vs. GLP-1 (cAMP EC50) [3]: 46%

B22: trigonal agonist of SEQ ID NO: 102 (peptide)
peptide: Y[Aib]QGTFTSDYSKALDEKAAKDFVNWLLDQHPSSGQPPPSC
modifications: bridge 16-20
- In vitro activity relative to native peptide (%), vs. Glucagon (cAMP EC50) [1]: 29.5%
- In vitro activity relative to native peptide (%), vs. GIP (cAMP EC50) [2]: 58%
- In vitro activity relative to native peptide (%), vs. GLP-1 (cAMP EC50) [3]: 23.3%

B23: trigonal agonist of SEQ ID NO: 94 (peptide)
peptide: {Acetyl(2-(4-imidazolyl))}-[Aib]QGTFTSDYSIAMDEIHQKDFVNWLLNTKC
modifications: bridge 15-19
- In vitro activity relative to native peptide (%), vs. Glucagon (cAMP EC50) [1]: < 0.1%
- In vitro activity relative to native peptide (%), vs. GIP (cAMP EC50) [2]: < 0.1%
- In vitro activity relative to native peptide (%), vs. GLP-1 (cAMP EC50) [3]: 0.5%

B24: trigonal agonist of SEQ ID NO: 98 (peptide)
peptide: Y[Aib]QGTFTSDYSKALDEKAAKEFVNWLLDHHPSSGQPPPSC
modifications: bridge 16-20
- In vitro activity relative to native peptide (%), vs. Glucagon (cAMP EC50) [1]: 8.2%
- In vitro activity relative to native peptide (%), vs. GIP (cAMP EC50) [2]: 47.1%
- In vitro activity relative to native peptide (%), vs. GLP-1 (cAMP EC50) [3]: 28.1%
